The values that follow come from publication PMC11901838.

The target in this experiment is Human thyroid-stimulating hormone receptor (human) (UniProt P16473).
Chain of UniProt P16473 (P16473 21-764): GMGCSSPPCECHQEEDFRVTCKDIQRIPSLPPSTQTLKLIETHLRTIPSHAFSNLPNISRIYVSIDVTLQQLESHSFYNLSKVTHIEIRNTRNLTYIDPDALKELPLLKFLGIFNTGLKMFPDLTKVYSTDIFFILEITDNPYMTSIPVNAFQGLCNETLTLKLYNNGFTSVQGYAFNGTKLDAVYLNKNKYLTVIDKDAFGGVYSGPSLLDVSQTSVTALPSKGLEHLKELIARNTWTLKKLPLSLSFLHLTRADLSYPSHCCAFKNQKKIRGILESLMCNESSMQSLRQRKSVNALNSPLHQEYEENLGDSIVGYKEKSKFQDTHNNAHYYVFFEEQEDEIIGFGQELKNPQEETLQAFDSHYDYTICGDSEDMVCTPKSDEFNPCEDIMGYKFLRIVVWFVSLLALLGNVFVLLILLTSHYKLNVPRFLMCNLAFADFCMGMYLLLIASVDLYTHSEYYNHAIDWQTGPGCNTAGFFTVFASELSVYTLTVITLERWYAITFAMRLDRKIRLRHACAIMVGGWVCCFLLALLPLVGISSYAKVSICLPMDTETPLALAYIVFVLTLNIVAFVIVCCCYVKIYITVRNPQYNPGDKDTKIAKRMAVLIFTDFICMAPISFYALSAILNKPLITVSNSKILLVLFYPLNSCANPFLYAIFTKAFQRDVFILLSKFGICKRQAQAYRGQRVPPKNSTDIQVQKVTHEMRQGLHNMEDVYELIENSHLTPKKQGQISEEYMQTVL

The substance “Recombinant human thyroid-stimulating hormone (from UniProt P01215 25-116; P01222 21-132) (ligand)” yielded an EC50 of the NFAT-driven luciferase reporter (RLU) in HEK293-TSHR/NFAT-Luc cells seeded at 0.8 × 10^5 cells/mL, serially diluted rhTSH of 0.32.
